Experimental data from the supplement of paper PMC10567573.

B1: MLL5 (parent)
chain: HDDGYMICCDKCSVWQHIDCMGID
B2: C19orf51 (parent)
chain: FAPQTGARPSETFARFCKSQESAL

Variants of: B1
Experiment: protein stability index of a GFP-peptide fusion (GPS, HEK-293T) (PSI 1-6); higher = more stable
Details: c terminus: a fixed tail appended
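Also: lentivirally expressed fusions sorted by FACS into six bins by GFP to DsRed ratio, PSI derived from sequencing read proportions per bin multiplied by bin number.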

Point of comparison: D2I, protein stability index 2.87. Against it:
- I7A — higher, 3.2
- I7M — lower, 2.29
- I7K — higher, 3.45
- I7F — lower, 2.72
- I7P — lower, 2.71
- I7D — higher, 3.42
- I7G — higher, 3.82
- I7Y — lower, 2.77
- I7N — higher, 3.12
- I7C — higher, 3.79
- I7T — higher, 2.93
- I7W — higher, 3.09
- I7R — lower, 2.45
- I7L — lower, 2.06
- I7V — lower, 2.79
- I7E — higher, 3.23
- I7H — higher, 3.55
- I7Q — higher, 3.51
- C9K — lower, 2.85
- C9I — lower, 2.1
- C9M — lower, 1.99
- C9S — higher, 3.81
- C9N — lower, 2.77
- C9E — higher, 3.42
- C9P — higher, 3.03
- C9V — lower, 2.67
- C9G — higher, 3.81
- C9Y — lower, 1.47
- C9Q — higher, 3
- C9L — lower, 2.12
- C9H — lower, 2.86
- C9R — lower, 2.76
- C9T — higher, 3.75
- C9D — higher, 3.74
- C9A — lower, 2.56
- C9W — lower, 2.16
- C9F — lower, 2.43
- W15I — lower, 2.43
- W15L — higher, 3.16
- W15S — higher, 3.69
- W15V — higher, 3.59
- W15T — higher, 3.7
- W15N — higher, 3.79
- W15H — higher, 3.93
- W15D — higher, 4.24
- W15Q — higher, 3.63
- W15G — higher, 4.18
- W15A — higher, 3.38
- W15Y — lower, 2.73
- W15M — higher, 3.18
- W15P — higher, 3.6
- W15R — higher, 3.18
- W15F — higher, 3.11
- W15C — higher, 3.49
- W15K — higher, 3.61
- W15E — higher, 4.13
- D3E — higher, 2.95
- D3K — lower, 1.88
- D3L — lower, 1.01
- D3F — lower, 1.53
- D3S — lower, 1.69
- D3V — lower, 2.75
- D3C — lower, 2.06
- D3G — lower, 2.47
- D3A — lower, 2.13
- D3Q — lower, 2.43
- D3M — lower, 1.69
- D3H — lower, 2.01
- D3R — lower, 2.02
- D3N — lower, 2.09
- D3W — lower, 1.88
- D3I — lower, 1.63
- D3T — lower, 2.41
- D3Y — lower, 1.91
- D3P — lower, 2.65
- D2A — lower, 1.76
- D2L — higher, 3.26
- D2T — higher, 2.99
- D2Q — lower, 2.04
- D2C — lower, 1.89
- D2W — lower, 1.84
- D2V — lower, 2.02
- D2R — lower, 2.02
- D2M — lower, 1.92
- D2F — lower, 2.23
- D2Y — lower, 1.93
- D2S — lower, 2.16
- D2K — lower, 2.69
- D2N — lower, 1.71
- D2P — lower, 2.16
- D2G — lower, 2.05
- D2E — lower, 2.53
- D2H — the same, 2.87
- C12G — lower, 2.67
- C12F — lower, 1.76
- C12V — lower, 1.93
- C12W — lower, 2.32
- C12S — higher, 3.01
- C12R — lower, 2.28
- C12H — lower, 2.65
- C12Q — lower, 2.46
- C12L — lower, 1.7
- C12Y — higher, 2.91
- C12K — higher, 3.46
- C12D — higher, 3.54
- C12M — lower, 2.05
- C12A — lower, 2.71
- C12E — higher, 3.63
- C12N — higher, 3.05
- C12P — lower, 2.56
- C12T — lower, 2.74
- C12I — lower, 1.92
- H17E — higher, 2.89
- H17C — higher, 3.54
- H17G — lower, 2.72
- H17F — lower, 1.65
- H17D — lower, 2.5
- H17A — lower, 2.16
- C8A — higher, 3.27
- C8E — lower, 2.73
- C8K — lower, 2.25
- C8G — lower, 2.59
- C8F — lower, 1.56
- C8H — lower, 2.37
- C8M — lower, 1.68
- C8P — higher, 3.12
- C8T — lower, 2.66
- C8S — lower, 1.83
- C8V — lower, 1.64
- C8I — lower, 1.9
- C8N — lower, 2.43
- C8W — lower, 1.86
- C8Q — higher, 2.96
- C8L — lower, 2.46
- C8Y — lower, 2.12
- C8D — higher, 3.19
- C8R — lower, 2.51
- H1W — lower, 2.63
- H1L — lower, 2.47
- H1N — lower, 2.73
- H1V — lower, 2.61
- H1I — lower, 1.98
- H1Y — higher, 3.85
- H1R — lower, 2.29
- H1G — lower, 2.25
- H1F — lower, 1.66
- H1T — lower, 2.19
- H1E — lower, 2.5
- H1C — lower, 2.1
- H1Q — lower, 2.24
- H1M — lower, 1.57
- H1A — lower, 2.42
- H1K — higher, 2.95
- H1D — lower, 2.83
- H1P — lower, 1.86
- H1S — lower, 2.81
- Y5V — higher, 2.96
- Y5S — lower, 2.84
- Y5E — higher, 3.39
- Y5F — lower, 1.74
- Y5K — higher, 3.53
- Y5A — higher, 3.46
- Y5I — higher, 2.98
- Y5H — higher, 3.79
- Y5P — higher, 2.9
- Y5N — higher, 3.3
- Y5D — higher, 3.14
- Y5Q — higher, 3.19
- Y5G — higher, 3.53
- Y5M — lower, 2.83
- Y5W — lower, 2.03
- Y5R — higher, 3.42
- Y5C — higher, 3.04
- Y5L — lower, 2.78
- Y5T — higher, 3.96
- K11E — lower, 2.39
- K11A — lower, 1.82
- K11P — lower, 2.4
- K11I — lower, 2
- K11R — lower, 1.85
- K11M — lower, 1.55
- K11S — lower, 2.68
- K11D — lower, 2.79
- K11C — higher, 3.26
- K11G — higher, 3.03
- K11N — lower, 2.31
- K11F — lower, 1.05
- K11L — lower, 2.23
- K11Q — higher, 2.94
- K11Y — lower, 1.86
- K11T — lower, 1.81
- K11H — lower, 2.1
- K11V — lower, 1.5
- S13Q — lower, 2.59
- S13E — lower, 2.55
- S13M — lower, 2.45
- S13K — lower, 2.43
- S13C — higher, 3.19
- S13P — lower, 2.7
- S13Y — lower, 1.93
- S13L — lower, 2.18
- S13H — lower, 2.09
- S13D — lower, 2.18
- S13W — lower, 2.37
- S13T — lower, 2.72
- S13F — lower, 1.8
- S13V — lower, 1.85
- S13G — higher, 3.48
- S13R — higher, 3.31
- S13A — lower, 1.73
- S13N — lower, 2.56
- M6H — higher, 4.05
- M6A — higher, 3.37
- M6Y — lower, 2.14
- M6I — lower, 2.65
- M6S — higher, 2.91
- M6L — lower, 2.59
- M6C — higher, 3.2
- M6V — higher, 3.1
- M6K — lower, 2.43
- M6Q — lower, 2.46
- M6T — lower, 2.41
- M6N — higher, 3.14
- M6G — lower, 2.4
- M6E — lower, 2.79
- M6W — lower, 2
- M6P — higher, 2.96
- M6R — higher, 3.35
- M6F — lower, 2.22
- M6D — higher, 2.96
- V14C — lower, 2.57
- V14P — higher, 3.12
- V14Q — lower, 2.83
- V14N — higher, 3.05
- V14G — higher, 2.94
- V14W — lower, 2.11
- V14K — higher, 3.22
- V14L — lower, 1.78
- V14M — lower, 2.06
- V14A — lower, 2.41
- V14T — higher, 2.93
- V14D — higher, 3.37
- V14R — lower, 2.77
- V14S — lower, 2.77
- V14E — higher, 3.73
- V14Y — lower, 2.12
- V14F — lower, 1.86
- V14I — lower, 2.57
- V14H — higher, 3.23
- Q16N — lower, 2.42
- Q16I — lower, 1.77
- Q16E — lower, 2.6
- Q16K — lower, 2.35
- Q16T — lower, 1.69
- Q16H — lower, 2.48
- Q16R — lower, 2.48
- Q16C — lower, 2.4
- Q16V — lower, 2.82
- Q16P — higher, 3.15
- Q16W — lower, 1.61
- Q16Y — lower, 1.07
- Q16L — lower, 2.75
- Q16F — lower, 2.02
- Q16M — lower, 2.65
- Q16S — lower, 1.93
- Q16A — lower, 1.47
- Q16G — lower, 2.71
- Q16D — lower, 2.08
- G4T — lower, 2.04
- G4W — lower, 2.56
- G4K — lower, 2.16
- G4R — lower, 2.73
- G4D — lower, 2.61
- G4V — lower, 2.1
- G4I — lower, 1.51
- G4S — lower, 2.38
- G4N — lower, 2.05
- G4Y — lower, 2.48
- G4F — lower, 1.94
- G4M — lower, 1.74
- G4A — lower, 2.04
- G4Q — lower, 2.2
- G4H — lower, 2.29
- G4P — lower, 2.69
- G4E — higher, 2.99
- G4C — lower, 2.53
- G4L — lower, 1.64
- D10Y — higher, 2.88
- D10I — higher, 3.54
- D10F — lower, 2.44
- D10C — lower, 2.71
- D10P — lower, 2.36
- D10Q — lower, 2.29
- D10N — lower, 2.41
- D10V — higher, 3.07
- D10K — lower, 2.51
- D10S — lower, 2.72
- D10M — higher, 2.95
- D10R — lower, 2.4
- D10A — lower, 1.71
- D10G — lower, 1.92
- D10T — lower, 1.69
- D10E — lower, 2.41

Variants of: B2
Experiment: as above
Details: c terminus: a fixed tail appended

Point of comparison: K18L, protein stability index 2.2. Against it:
- F13T — lower, 1.82
- C17S — lower, 1.74
- C17E — lower, 1.09
- S19K — higher, 2.35
- S19W — lower, 1.75
- R8Q — lower, 1.59
- F16S — higher, 2.79
- F16Q — lower, 1.54
- K18Y — lower, 1.99
- K18E — lower, 1.92
- T5P — lower, 1.81
- T5D — higher, 2.37
- E11H — higher, 2.47
- E11Y — higher, 3.29
- P3S — lower, 1.61
- P3N — lower, 1.96
- S22F — lower, 2.18
- Q20Y — higher, 2.31
- A7D — lower, 1.59
- A7L — lower, 2
- L24Q — lower, 1.23
- L24N — higher, 2.58
- P9T — higher, 3.29
- R15E — higher, 2.65
- T12P — lower, 1.82
- G6S — lower, 1.9
- A23K — lower, 1.75
- S10I — higher, 2.32
- E21A — higher, 2.86
